The source of these data is IntAct's records for PubMed 31515488.

The chains are these.
B1: Rho guanine nucleotide exchange factor 3 (Homo sapiens), Q9NR81 (parent)
chain: MVAKDYPFYLTVKRANCSLELPPASGPAKDAEEPSNKRVKPLSRVTSLANLIPPVKATPLKRFSQTLQRSISFRSESRPDILAPRPWSRNAAPSSTKRRDSKLWSETFDVCVNQMLTSKEIKRQEAIFELSQGEEDLIEDLKLAKKAYHDPMLKLSIMTEQELNQIFGTLDSLIPLHEELLSQLRDVRKPDGSTEHVGPILVGWLPCLSSYDSYCSNQVAAKALLDHKKQDHRVQDFLQRCLESPFSRKLDLWNFLDIPRSRLVKYPLLLREILRHTPNDNPDQQHLEEAINIIQGIVAEINTKTGESECRYYKERLLYLEEGQKDSLIDSSRVLCCHGELKNNRGVKLHVFLFQEVLVITRAVTHNEQLCYQLYRQPIPVKDLLLEDLQDGEVRLGGSLRGAFSNNERIKNFFRVSFKNGSQSQTHSLQANDTFNKQQWLNCIRQAKETVLCAAGQAGVLDSEGSFLNPTTGSRELQGETKLEQMDQSDSESDCSMDTSEVSLDCERMEQTDSSCGNSRHGESNV
partner: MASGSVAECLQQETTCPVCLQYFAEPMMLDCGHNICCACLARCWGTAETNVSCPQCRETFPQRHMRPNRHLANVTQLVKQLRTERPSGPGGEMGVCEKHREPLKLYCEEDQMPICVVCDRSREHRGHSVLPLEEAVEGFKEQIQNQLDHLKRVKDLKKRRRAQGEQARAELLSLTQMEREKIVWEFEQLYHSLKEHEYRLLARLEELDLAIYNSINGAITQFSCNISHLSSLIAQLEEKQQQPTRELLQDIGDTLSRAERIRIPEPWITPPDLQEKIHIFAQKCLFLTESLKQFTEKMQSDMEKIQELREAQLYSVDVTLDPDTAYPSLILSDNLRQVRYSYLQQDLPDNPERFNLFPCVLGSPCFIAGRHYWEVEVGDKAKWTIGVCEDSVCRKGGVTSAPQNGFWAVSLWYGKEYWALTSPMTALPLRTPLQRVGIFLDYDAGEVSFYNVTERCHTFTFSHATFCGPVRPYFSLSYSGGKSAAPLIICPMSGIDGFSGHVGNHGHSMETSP
B2: Pyridine nucleotide-disulfide oxidoreductase domain-containing protein 1 (Homo sapiens), Q8WU10 (parent)
chain: MEAARPPPTAGKFVVVGGGIAGVTCAEQLATHFPSEDILLVTASPVIKAVTNFKQISKILEEFDVEEQSSTMLGKRFPNIKVIESGVKQLKSEEHCIVTEDGNQHVYKKLCLCAGAKPKLICEGNPYVLGIRDTDSAQEFQKQLTKAKRIMIIGNGGIALELVYEIEGCEVIWAIKDKAIGNTFFDAGAAEFLTSKLIAEKSEAKIAHKRTRYTTEGRKKEARSKSKADNVGSALGPDWHEGLNLKGTKEFSHKIHLETMCEVKKIYLQDEFRILKKKSFTFPRDHKSVTADTEMWPVYVELTNEKIYGCDFIVSATGVTPNVEPFLHGNSFDLGEDGGLKVDDHMHTSLPDIYAAGDICTTSWQLSPVWQQMRLWTQARQMGWYAAKCMAAASSGDSIDMDFSFELFAHVTKFFNYKVVLLGKYNAQGLGSDHELMLRCTKGREYIKVVMQNGRMMGAVLIGETDLEETFENLILNQMNLSSYGEDLLDPNIDIEDYFD
partner: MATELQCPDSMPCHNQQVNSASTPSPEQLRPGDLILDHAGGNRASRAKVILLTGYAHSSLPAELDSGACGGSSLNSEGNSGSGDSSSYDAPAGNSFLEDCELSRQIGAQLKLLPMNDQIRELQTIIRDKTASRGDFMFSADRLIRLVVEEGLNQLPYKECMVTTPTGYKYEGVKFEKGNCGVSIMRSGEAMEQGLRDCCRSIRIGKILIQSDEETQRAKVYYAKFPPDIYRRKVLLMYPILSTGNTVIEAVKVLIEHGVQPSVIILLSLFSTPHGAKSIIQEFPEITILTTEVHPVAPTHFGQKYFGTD
B3: DCC-interacting protein 13-alpha (Homo sapiens), Q9UKG1 (parent)
chain: MPGIDKLPIEETLEDSPQTRSLLGVFEEDATAISNYMNQLYQAMHRIYDAQNELSAATHLTSKLLKEYEKQRFPLGGDDEVMSSTLQQFSKVIDELSSCHAVLSTQLADAMMFPITQFKERDLKEILTLKEVFQIASNDHDAAINRYSRLSKKRENDKVKYEVTEDVYTSRKKQHQTMMHYFCALNTLQYKKKIALLEPLLGYMQAQISFFKMGSENLNEQLEEFLANIGTSVQNVRREMDSDIETMQQTIEDLEVASDPLYVPDPDPTKFPVNRNLTRKAGYLNARNKTGLVSSTWDRQFYFTQGGNLMSQARGDVAGGLAMDIDNCSVMAVDCEDRRYCFQITSFDGKKSSILQAESKKDHEEWICTINNISKQIYLSENPEETAARVNQSALEAVTPSPSFQQRHESLRPAAGQSRPPTARTSSSGSLGSESTNLAALSLDSLVAPDTPIQFDIISPVCEDQPGQAKAFGQGGRRTNPFGESGGSTKSETEDSILHQLFIVRFLGSMEVKSDDHPDVVYETMRQILAARAIHNIFRMTESHLLVTCDCLKLIDPQTQVTRLTFPLPCVVLYATHQENKRLFGFVLRTSSGRSESNLSSVCYIFESNNEGEKICDSVGLAKQIALHAELDRRASEKQKEIERVKEKQQKELNKQKQIEKDLEEQSRLIAASSRPNQASSEGQFVVLSSSQSEESDLGEGGKKRESEA
partner: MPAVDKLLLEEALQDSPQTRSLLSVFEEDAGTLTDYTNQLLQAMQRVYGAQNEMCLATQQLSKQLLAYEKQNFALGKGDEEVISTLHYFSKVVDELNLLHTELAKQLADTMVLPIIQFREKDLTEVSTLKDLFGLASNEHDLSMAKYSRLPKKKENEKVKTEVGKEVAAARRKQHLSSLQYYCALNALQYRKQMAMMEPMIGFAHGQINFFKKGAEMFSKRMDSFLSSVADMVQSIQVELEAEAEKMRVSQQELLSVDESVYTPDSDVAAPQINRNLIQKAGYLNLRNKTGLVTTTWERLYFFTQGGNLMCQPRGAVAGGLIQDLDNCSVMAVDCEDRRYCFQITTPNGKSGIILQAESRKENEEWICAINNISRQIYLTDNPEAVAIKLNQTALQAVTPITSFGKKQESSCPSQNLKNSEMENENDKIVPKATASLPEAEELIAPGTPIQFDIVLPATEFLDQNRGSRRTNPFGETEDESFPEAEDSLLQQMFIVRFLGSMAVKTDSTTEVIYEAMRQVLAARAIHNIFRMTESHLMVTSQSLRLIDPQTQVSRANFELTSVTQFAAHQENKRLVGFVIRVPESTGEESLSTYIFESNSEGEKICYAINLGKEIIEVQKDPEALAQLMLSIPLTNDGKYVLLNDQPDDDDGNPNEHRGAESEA
B4: Protein unc-45 homolog A (Homo sapiens), Q9H3U1 (parent)
chain: MTVSGPGTPEPRPATPGASSVEQLRKEGNELFKCGDYGGALAAYTQALGLDATPQDQAVLHRNRAACHLKLEDYDKAETEASKAIEKDGGDVKALYRRSQALEKLGRLDQAVLDLQRCVSLEPKNKVFQEALRNIGGQIQEKVRYMSSTDAKVEQMFQILLDPEEKGTEKKQKASQNLVVLAREDAGAEKIFRSNGVQLLQRLLDMGETDLMLAALRTLVGICSEHQSRTVATLSILGTRRVVSILGVESQAVSLAACHLLQVMFDALKEGVKKGFRGKEGAIIVDPARELKVLISNLLDLLTEVGVSGQGRDNALTLLIKAVPRKSLKDPNNSLTLWVIDQGLKKILEVGGSLQDPPGELAVTANSRMSASILLSKLFDDLKCDAERENFHRLCENYIKSWFEGQGLAGKLRAIQTVSCLLQGPCDAGNRALELSGVMESVIALCASEQEEEQLVAVEALIHAAGKAKRASFITANGVSLLKDLYKCSEKDSIRIRALVGLCKLGSAGGTDFSMKQFAEGSTLKLAKQCRKWLCNDQIDAGTRRWAVEGLAYLTFDADVKEEFVEDAAALKALFQLSRLEERSVLFAVASALVNCTNSYDYEEPDPKMVELAKYAKQHVPEQHPKDKPSFVRARVKKLLAAGVVSAMVCMVKTESPVLTSSCRELLSRVFLALVEEVEDRGTVVAQGGGRALIPLALEGTDVGQTKAAQALAKLTITSNPEMTFPGERIYEVVRPLVSLLHLNCSGLQNFEALMALTNLAGISERLRQKILKEKAVPMIEGYMFEEHEMIRRAATECMCNLAMSKEVQDLFEAQGNDRLKLLVLYSGEDDELLQRAAAGGLAMLTSMRPTLCSRIPQVTTHWLEILQALLLSSNQELQHRGAVVVLNMVEASREIASTLMESEMMEILSVLAKGDHSPVTRAAAACLDKAVEYGLIQPNQDGE
partner: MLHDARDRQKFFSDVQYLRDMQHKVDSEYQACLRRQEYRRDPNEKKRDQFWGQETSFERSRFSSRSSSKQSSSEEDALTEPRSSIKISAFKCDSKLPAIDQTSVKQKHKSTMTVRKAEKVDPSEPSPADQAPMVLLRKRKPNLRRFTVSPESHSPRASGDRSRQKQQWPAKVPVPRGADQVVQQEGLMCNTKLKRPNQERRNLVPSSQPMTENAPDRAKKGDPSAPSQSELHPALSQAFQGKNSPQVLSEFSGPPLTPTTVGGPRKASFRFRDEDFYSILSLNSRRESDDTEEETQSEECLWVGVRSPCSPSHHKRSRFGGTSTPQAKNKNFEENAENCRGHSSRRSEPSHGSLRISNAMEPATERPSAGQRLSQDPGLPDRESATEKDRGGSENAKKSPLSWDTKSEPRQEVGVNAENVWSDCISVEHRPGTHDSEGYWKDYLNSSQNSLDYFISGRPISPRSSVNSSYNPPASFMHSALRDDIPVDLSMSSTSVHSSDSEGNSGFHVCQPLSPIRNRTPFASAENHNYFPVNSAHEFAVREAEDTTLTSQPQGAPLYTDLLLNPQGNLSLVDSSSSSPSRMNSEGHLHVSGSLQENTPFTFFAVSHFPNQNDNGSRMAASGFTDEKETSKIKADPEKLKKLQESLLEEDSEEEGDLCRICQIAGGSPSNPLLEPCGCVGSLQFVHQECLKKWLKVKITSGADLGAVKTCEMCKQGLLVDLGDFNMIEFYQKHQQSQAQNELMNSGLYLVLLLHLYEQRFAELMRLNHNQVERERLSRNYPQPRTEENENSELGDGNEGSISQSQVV
B5: Notch homolog 2 N-terminal-like protein A (Homo sapiens), Q7Z3S9 (parent)
chain: MCVTYHNGTGYCKCPEGFLGEYCQHRDPCEKNRCQNGGTCVAQAMLGKATCRCASGFTGEDCQYSTSHPCFVSRPCLNGGTCHMLSRDTYECTCQVGFTGKECQWTDACLSHPCANGSTCTTVANQFSCKCLTGFTGQKCETDVNECDIPGHCQHGGTCLNLPGSYQCQCLQGFTGQYCDSLYVPCAPSPCVNGGTCRQTGDFTFECNCLPETVRRGTELWERDREVWNGKEHDEN
partner: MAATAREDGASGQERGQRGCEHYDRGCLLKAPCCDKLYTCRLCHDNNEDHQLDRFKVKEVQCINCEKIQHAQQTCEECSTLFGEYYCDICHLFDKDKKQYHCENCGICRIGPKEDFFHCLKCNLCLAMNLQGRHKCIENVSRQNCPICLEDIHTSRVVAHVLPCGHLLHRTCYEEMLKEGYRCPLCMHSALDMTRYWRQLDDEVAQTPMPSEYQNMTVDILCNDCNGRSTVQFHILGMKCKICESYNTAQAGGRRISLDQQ

Variants of B1 are the subject of the first test. The conditions noted are these: with tri27_human TRIM27, P14373.
As to N432S, the “effect of a mutation on the interaction” value is listed as “with no effect”.

A further test covers variants of B2. The conditions noted are these: with upp_human UPRT.
Turning to R374K, the “effect of a mutation on the interaction” value is “with no effect”.

Another test covers variants of B3. To be noted: with dp13b_human APPL2, Q8NEU8.
Regarding E643Q, the “effect of a mutation on the interaction” value is reported as “with no effect”.
The same measure, in the same setting: the result for E67G reads “with no effect”.

The variants in a further test derive from B4. To be noted: with marha_human MARCHF10, Q8NA82.
For T796M, the “effect of a mutation on the interaction” value is “with no effect”.

Variants of B5 are the subject of the next test. The conditions noted are these: with zn363_human RCHY1, Q96PM5.
Turning to A115T, the “effect of a mutation on the interaction” value is listed as “with no effect”.
